Here are results for one molecule from patent publication US20150183884A1 (NATIONAL HEALTH RESEARCH INSTITUTES, published 2015).

Assay [1] addresses T1, BSA (bovine, UniProt P02769).
T1 construct: also called BSA background
The assay can be described thus: ELISA, BSA as background. The source says: This reaction solution was subjected to 2% agarose gel electrophoresis to analyze the reaction products. Reaction products with the correct molecular weights were ligated into a pCR 2.1-TOPO vector (manufactured by Invitrogen) for subcloning in accordance with the attached instruction manual. M13 forward (5′-[…]-3′(SEQ ID NO: 11) and M13 reverse (5′-CAG GAAACA GCT ATG AC-3′ (SEQ ID NO: 12)) primers were then used to determine the nucleotide sequence. Every mutation clone with the correct sequences was digested with restriction enzymes BamHI and XhoI, and the digestion products were subjected to 2% agarose gel electrophoresis. The insertion fragment of each mutant was cut from the agarose gel and purified with a Gene Clean Kit in accordance with the attached instruction manual provided by the manufacturer (BIO101). The BamHI and XhoI DNA fragment of each mutant was ligated to the BamHI and XhoI sites of an E. coli expression vector pTRC His A (Invitrogen). The resulting plasmid was transformed into E. coli BL21 Rosseta. The ENO1 mutation protein was expressed in E. coli by IPTG induction and purified by Ni-agarose in accordance with the attached instruction manual provided by the manufacturer (Qiagen) after the bacteria pellet was sonicated. The purity of each mutant was analyzed by 12% SDS PAGE. […] The binding affinity was determined by the readings of OD 405. […]
A general note: In an ELISA, binding on a coated surface is turned into a signal by an enzyme label.

The target in assay [2] is ENO1 deletion Δ297-434 mutant (human) (UniProt P06733). The assay can be described thus: ELISA on coated ENO1 protein or mutant, 10 microgram EN10 mAb.
Assay [3] concerns the target ENO1 deletion mutant Δ1-189 (human) (UniProt P06733). The assay can be described thus: ELISA on coated mutant protein, 10 microgram EN10 mAb.
The target of assay [4] is ENO1 deletion mutant Δ1-297 (human) (UniProt P06733). Described as above.

Chain of ENO1 deletion Δ297-434 mutant (human) (P06733 1-296, stated change not applied): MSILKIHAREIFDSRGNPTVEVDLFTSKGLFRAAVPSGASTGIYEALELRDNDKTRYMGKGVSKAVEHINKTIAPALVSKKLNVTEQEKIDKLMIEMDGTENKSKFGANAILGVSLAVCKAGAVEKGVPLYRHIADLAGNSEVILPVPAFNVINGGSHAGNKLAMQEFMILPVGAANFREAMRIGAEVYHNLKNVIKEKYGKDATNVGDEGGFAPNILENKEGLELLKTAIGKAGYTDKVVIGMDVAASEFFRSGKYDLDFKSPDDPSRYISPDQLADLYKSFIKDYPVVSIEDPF
T1 sequence (P02769 25-607 limits assumed): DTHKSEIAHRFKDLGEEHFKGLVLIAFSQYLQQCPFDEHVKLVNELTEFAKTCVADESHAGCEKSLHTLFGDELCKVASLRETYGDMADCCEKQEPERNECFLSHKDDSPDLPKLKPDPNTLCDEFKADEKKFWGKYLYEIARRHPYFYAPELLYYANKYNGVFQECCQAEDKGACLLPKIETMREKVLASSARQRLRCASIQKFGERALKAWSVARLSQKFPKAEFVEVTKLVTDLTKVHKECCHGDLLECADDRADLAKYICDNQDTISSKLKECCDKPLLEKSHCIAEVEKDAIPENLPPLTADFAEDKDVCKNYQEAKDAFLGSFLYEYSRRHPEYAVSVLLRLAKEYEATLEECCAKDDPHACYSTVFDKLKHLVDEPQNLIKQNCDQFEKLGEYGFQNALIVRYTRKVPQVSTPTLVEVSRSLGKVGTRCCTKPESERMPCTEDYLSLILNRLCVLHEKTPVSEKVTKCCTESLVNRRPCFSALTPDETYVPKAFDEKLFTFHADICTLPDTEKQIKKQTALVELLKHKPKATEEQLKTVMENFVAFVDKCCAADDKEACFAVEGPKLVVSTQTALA

B1: EN10 mAb (antibody, V domains shown)
VH: EVQLQQSGPELVKPGASVKMSCKASGYTFTSCVMNWVKQKPGQGLEWIGYINPYNDGTKYNEKFKGKATLTSDKSSSTAYMELSSLTSEDSAVYYCAREGFYYGNFDNWGQGTTLTVSS
VL: DIQMTQSPASLSASVGETVTITCRASENIYSYLTWYQQKQGKSPQLLVYNAKTLPEGVPSRFSGSGSGTQFSLKINSLQPEDFGSYYCQHHYGTPYTFGGGTKLEITR
notes: also called clone 10; anti-human ENO1 antibody clones 10
For the molecule B1, the binding result in assay [1] was “no binding (tested: 10 microgram EN10 mAb (amount))”. In addition, in assay [2], the OD450 came out at 0.47. Further, the OD405 stood at 1.43 OD405 in assay [3] and 1.56 OD405 in assay [4]. Moreover, the percent of the OD405 of wild type ENO1 in assay [3] amounted to 42%; in assay [4], 39%.
